Bridges are numbered along the chain shown (N, C = ends). Where no end group is shown, it is not given here. [ ]: non-standard residue; d: D form. The star is where a group is joined. Acetyl(2-(4-imidazolyl)) = O=C(Cc1c[nH]cn1)*; Aib = CC(C)(N)C(=O)O
Legend:
Assay in all cases: cell-based or functional assay
[1] = molecular target: human glucagon receptor (human) (UniProt P47871)
[2] = molecular target: human GLP-1 receptor (human) (UniProt P43220)
human glucagon receptor = human glucagon receptor (human, UniProt P47871 26-477)
Chain of human glucagon receptor (P47871 26-477): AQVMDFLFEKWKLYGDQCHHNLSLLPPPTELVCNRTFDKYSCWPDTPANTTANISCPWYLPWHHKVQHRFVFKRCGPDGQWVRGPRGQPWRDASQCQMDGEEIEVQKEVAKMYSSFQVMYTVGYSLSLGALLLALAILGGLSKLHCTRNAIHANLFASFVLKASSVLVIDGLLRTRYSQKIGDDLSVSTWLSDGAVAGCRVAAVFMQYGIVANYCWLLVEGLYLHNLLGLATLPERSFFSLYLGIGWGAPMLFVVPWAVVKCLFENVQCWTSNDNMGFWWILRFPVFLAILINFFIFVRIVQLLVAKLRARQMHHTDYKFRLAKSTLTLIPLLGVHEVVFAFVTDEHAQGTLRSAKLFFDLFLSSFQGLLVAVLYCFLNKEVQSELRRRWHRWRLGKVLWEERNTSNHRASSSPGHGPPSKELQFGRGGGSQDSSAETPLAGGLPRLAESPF

human GLP-1 receptor = human GLP-1 receptor (human, UniProt P43220 24-463)

Chain of human glucagon receptor (human) (P47871 26-477): as above
Chain of human GLP-1 receptor (human) (P43220 24-463): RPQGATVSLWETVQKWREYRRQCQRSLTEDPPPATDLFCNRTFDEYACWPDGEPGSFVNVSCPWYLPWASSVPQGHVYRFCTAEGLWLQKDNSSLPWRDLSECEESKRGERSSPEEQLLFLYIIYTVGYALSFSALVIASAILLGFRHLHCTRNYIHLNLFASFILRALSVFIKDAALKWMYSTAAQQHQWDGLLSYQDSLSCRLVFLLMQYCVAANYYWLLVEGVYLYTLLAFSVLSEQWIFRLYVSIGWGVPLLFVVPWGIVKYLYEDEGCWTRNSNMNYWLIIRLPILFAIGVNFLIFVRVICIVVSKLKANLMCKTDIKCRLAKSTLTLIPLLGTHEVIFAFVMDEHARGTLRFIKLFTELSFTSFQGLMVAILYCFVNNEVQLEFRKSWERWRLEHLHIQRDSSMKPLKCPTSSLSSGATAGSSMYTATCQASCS

B1: oxyntomodulin derivative of SEQ ID NO: 3 (peptide)
peptide: [Acetyl(2-(4-imidazolyl))]SQGTFTSDYSKYLDERRAQDFVAWLKNTGPSSGAPPPS
EC50 (cAMP, CHO/GCGR) [1]: 638 nM
EC50 (cAMP, CHO/GLP-1R) [2]: > 1000 nM

B2: oxyntomodulin derivative of SEQ ID NO: 8 (peptide)
peptide: [Acetyl(2-(4-imidazolyl))]SQGTFTSDLSRQLEEEAVRLFIEWLMNK
EC50 (cAMP, CHO/GCGR) [1]: > 1000 nM
EC50 (cAMP, CHO/GLP-1R) [2]: 420 nM

B3: oxyntomodulin derivative of SEQ ID NO: 18 (peptide)
peptide: [Acetyl(2-(4-imidazolyl))]SQGTFTSDYSRYLDEEAVRLFIEWIRNGGPSSGAPPPSK
EC50 (cAMP, CHO/GCGR) [1]: > 1000 nM
EC50 (cAMP, CHO/GLP-1R) [2]: 96.3 nM

B4: oxyntomodulin derivative of SEQ ID NO: 6 (peptide)
peptide: [Acetyl(2-(4-imidazolyl))]GEGTFTSDLSRQMEEEAVRLFIEWAAHSQGTFTSDYSKYLD
EC50 (cAMP, CHO/GCGR) (human glucagon receptor): > 1000 nM

B5: oxyntomodulin derivative of SEQ ID NO: 11 (peptide)
peptide: [Acetyl(2-(4-imidazolyl))]GEGTFTSDLSRQMEEEAVRLFIEWAAHSQGTFTSDYSRYLDK
EC50 (cAMP, CHO/GCGR) (human glucagon receptor): > 1000 nM
EC50 (cAMP, CHO/GLP-1R) (human GLP-1 receptor): > 1000 nM

B6: oxyntomodulin derivative of SEQ ID NO: 25 (peptide)
peptide: H[Aib]QGTFTSDYSKYLDEKRAKEFVQWLMNTC
modifications: bridge 16-20
EC50 (cAMP, CHO/GCGR) (human glucagon receptor): 1.3 nM
EC50 (cAMP, CHO/GLP-1R) (human GLP-1 receptor): 1.9 nM

B7: oxyntomodulin derivative of SEQ ID NO: 33 (peptide)
peptide: H[Aib]QGTFTSDYAKYLDEKRAKEFVQWLMNTC
modifications: bridge 16-20
EC50 (cAMP, CHO/GCGR) (human glucagon receptor): 80.2 nM
EC50 (cAMP, CHO/GLP-1R) (human GLP-1 receptor): 2.2 nM

B8: oxyntomodulin derivative of SEQ ID NO: 34 (peptide)
peptide: Y[Aib]QGTFTSDYSKYLDEKRAKEFVQWLMNTC
modifications: bridge 16-20
EC50 (cAMP, CHO/GCGR) (human glucagon receptor): 1.04 nM
EC50 (cAMP, CHO/GLP-1R) (human GLP-1 receptor): 12.5 nM
